Results taken from US20250325682A1, “FKBP52-DERIVED THERAPEUTIC PEPTIDES THAT INHIBIT PATHOLOGICAL TAU AGGREGATION FOR THERAPEUTIC PURPOSES” (priority 2024, published 2025).
Ends that are not written are not given here.

Legend:
[1] = tested on: hTau-P301S mouse DRG neurons; assay: Western blot of sarkosyl-insoluble Tau fraction of peptide-treated DRG neurons; assay type: cell-based; settings: peptide 200 nM in cell medium for 15 days, compared to scramble control
Method: DRG culture and western-blot analyses. DRG neurons were collected from hTau-P301S mice spinal cords as described by Sleigh and dissociated with collagenase (ThermoFisher Scientific, 17100-017) 2900 U/mL during 90 min followed by 0.1% trypsin (Life Technologies, 15090-046) 3 mM EDTA containing DNaseI (50 μg/mL; Sigma-Aldrich, 04536282001) for 5 min; Sleigh J N, Weir G A, Schiavo G, A simple, step-by-step dissection protocol for the rapid isolation of mouse dorsal root ganglia. BMC RES NOTES, 2016, 9, 82.
Cell treatment was stopped using 1×PBS (VWR, X0515-500) supplemented with 2% horse serum (ThermoFisher Scientific, 16050-122), and DRG neurons were dissociated with a Pasteur pipette. Cells were then centrifuged for 5 min at 1,300 g and the pellet was resuspended in DMEM (Fisher Scientific, 12077549) with 9% fetal bovine serum. After filtration on a 0.40 μm filter followed by centrifugation 5 min at 1,300 g. the pellet was resuspended in neurobasal medium complemented with B27 (50×), L-glutamine (100×) (Life Technologies, 11530536 and 25030024 respectively), NGF 2.5 S (27 ng/ml; ThermoFisher, 13257-019) and distributed in 2 wells of a 6-well culture plate. Cell cultures were maintained for 15 days in vitro (DIV) and the cell medium complemented with mitomycine C (Sigma-Aldrich, M4287) and 5-Fluorodeoxy-uridine (Sigma-Aldrich, F0503) was changed twice a week. Cells were harvested by scraping, centrifuged for 10 min at 200 g and the pellet was homogenized using PotterElvehjem 18 in cold extraction buffer (50 mM Tris-HCl, pH 7.5, 100 mM NaCl, 0.5% SDS, 2 mM CaCl2, 2 mM MgCl2) supplemented with a cocktail of protease and phosphatase inhibitors (Roche, 11836145001). […] Each sample was analyzed on a 10% SDS Page gel and transferred onto iBlot™ Gel Transfer membranes (Invitrogen, IB23001, IB24002). […] Images were recorded with the GeneGnome5 (Syngene). Quantification was performed using Genetools analysis software (Syngene).
DRGs treatment with peptides. […] After cell lysis, lysates were then analyzed by western-blot as described in “DRG culture and western-blot analyses”.

Tau-P301L = molecular target: T1, Tau-P301L (Homo sapiens, UniProt P10636, P618L); assay: Thioflavine T fluorescence assay of seeded Tau-P301L aggregation; assay type: biochemical; settings: for Tau-P301L aggregate formation (ThT fluorescence intensity): Tau-P301L 5 μM with Tau seeds, peptide 50 μM, fluorescence at 24 h, ±SEM, n=3, remaining aggregation
T1 construct: made in house; host or cells: Escherichia coli BL21
T1 sequence (P10636 1-441 isoform P10636-8 P301L): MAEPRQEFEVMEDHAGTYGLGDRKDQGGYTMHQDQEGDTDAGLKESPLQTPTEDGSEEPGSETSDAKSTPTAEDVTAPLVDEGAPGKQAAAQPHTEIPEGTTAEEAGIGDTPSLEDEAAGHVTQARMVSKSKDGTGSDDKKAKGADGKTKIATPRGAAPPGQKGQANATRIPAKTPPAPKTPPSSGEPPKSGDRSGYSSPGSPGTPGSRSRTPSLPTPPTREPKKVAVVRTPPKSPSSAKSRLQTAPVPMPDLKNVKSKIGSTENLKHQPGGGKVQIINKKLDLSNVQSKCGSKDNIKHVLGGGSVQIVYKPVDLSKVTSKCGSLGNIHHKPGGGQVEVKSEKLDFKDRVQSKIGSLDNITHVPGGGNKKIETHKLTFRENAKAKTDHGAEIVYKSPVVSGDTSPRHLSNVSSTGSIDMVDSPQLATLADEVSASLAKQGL
From the text: Protein purification. Recombinant wild-type Tau and Tan with P301L mutation proteins was expressed in Escherichia coli (E. coli, BL21) and purified as described; Goedert M, Jakes R (1990) Expression of separate isoforms of human tau protein: correlation with the tau pattern in brain and effects on tubulin polymerization. EMBO J 9, 4225-4230. Combs B, Tiernan C T, Hamel C, Kanaan N M (2017) Production of recombinant tau oligomers in vitro. Methods Cell Biol 141, 45-64.
Effect of P35 on Tau-P30IL aggregation. Tau-P301L protein is used in all aggregation assays. Tau seeds are prepared during a first polymerization: 15UM of monomeric Tau-P301L was incubated at 37° C. in polymerization buffer (PI-buffer): NaH2PO4 25 mM, Na2HPO4 25 mM, NaCl 25 mM, EDTA SmM PH 6,6 with heparin 7.5 μM, Thioflavine-T 50 μM, and Dithiothreitol (DTT) 0.3 mM in a final volume of 100 μl. Fluorescence was monitored every 30 minutes during 25 hours at 480 nm (excitation at 450 nm) using Perkin-Elmer Endvision spectrophotometer. After polymerization, samples (100 μl) were centrifuged at 20,000 g for 1 hour at 4° C. The pellets were resuspended in 100 μl of PI-buffer and sonicated (Branson sonicator) at 40%, 3 times of 1 second, in order to obtain small pre-formed Tau fibrils used as seeds for the second polymerization assay. A volume of 18% of Tau seeds was pre-incubated in the same buffer of the first polymerization, with or without polypeptides, during 1 h at 37° C. Subsequently, 5 μM of monomeric Tau-P301L was added and fluorescence was monitored in the same conditions.

In the case of “YARAAARQARA-P35 (YARAAARQARAAKPNEGAIVEVALEGYYKDKLFDQRELRFEIGEGE) [YARA-P35]”, the “insoluble Tau forms / Tau-P301S aggregation (western blot, sarkosyl-insoluble fraction)” value [1] is reported as “tends to show a decrease of Tau-P301S aggregation”.

In the case of “AKPNEGAIVEVALEGYYKDKLFDQRELRFEIGEGENLDLPYGLERAIQRM (listed as Homo sapiens) [P50]”, the “effect on Tau-P301L aggregation in vitro (in words)” value (Tau-P301L; in vitro incubation of Tau-P301L with peptide, data not shown) is reported as “comparable effects than P35”.

For “AKPNEGAIVEVALEGYYKDKLFDQRELRFEIGEGE (Ac-AKPNEGAIVEVALEGYYKDKLFDQRELRFEIGEGE; not fully specified (C-terminus); listed as Homo sapiens) [P35]”, the “Tau-P301L aggregate formation (ThT fluorescence intensity)” value (Tau-P301L) was 80.6%.

In the case of “IRFKVLEGLYGEVDEAKEGNEAKAEGLQEYPDFIR [P35sc, reference compound]”, the “Tau-P301L aggregate formation (ThT fluorescence intensity)” value (Tau-P301L) is reported as 91.4%.

B1: YARAAARQARA-P50 (peptide)
chain: YARAAARQARAAKPNEGAIVEVALEGYYKDKLFDQRELRFEIGEGENLDLPYGLERAIQRM
In the case of B1, the “insoluble Tau forms / Tau-P301S aggregation (western blot, sarkosyl-insoluble fraction)” value [1] is reported as “decrease of insoluble Tau forms” and the “insoluble Tau forms / Tau-P301S aggregation (western blot, sarkosyl-insoluble fraction)” value ([1]; listed as YARA-PSO) is reported as “tends to show a decrease of Tau-P301S aggregation”.
